# Data: publication PMC11128199 (JCI Insight, 2024)
# B1: 58G6 Fab (Fab, V domains shown)
# VH: QMQLVQSGPEVKKPGTSVKVSCKASGFTFSSSAVQWVRQARGQHLEWIGWIVVGSGNTNYAQKFQERVTLTRDMSTRTAYMELSSLRSEDTAVYYCAAPNCNSTTCHDGFDIWGQGTVVTVSS
# VL: EIVLTQSPGTLSLSPGERATLSCRASQSVRSSYLGWYQQKPGQAPRLLIYGASSRATGIPDRFSGSGSGTDFTLTISRLESEDFAVYYCQQYDNSPWTFGQGTKVEIK
# Target: T1, stabilized SARS-CoV-2 Omicron S ECD HexaPro (SARS-CoV-2 Omicron BA.1, stabilised)
# T1 construct: also called prefusion Omicron BA.1 S trimer; BA.1 S
# Experiment: cryo-EM structure
# Conditions: both partners purified
binder,measurement,value
B1,stoichiometry N,1 Fabs per S trimer
